Experimental data taken from PMC4627809, “Client Proteins and Small Molecule Inhibitors Display Distinct Binding Preferences for Constitutive and Stress-Induced HSP90 Isoforms and Their Conformationally Restricted Mutants” (PLoS ONE, 2015).

Target: T1, FLAG-HSP90α wild type (human, UniProt P07900 1-732)
T1 construct: HSP90α, stress-inducible cytosolic HSP90 isoform, encoded by HSP90AA1, human; The plasmid list names only pcDNA3-FLAG-HSP90α; the LUMIER methods call the protein 3XFLAG-tagged; also called HSP90α WT; 3XFLAG-HSP90α; source: HEK293, transfected, in lysate
Assay: LUMIER; HEK293 in 96-well plates co-transfected with NanoLuc-client and 3XFLAG-HSP90α or β; TGNET lysate on anti-FLAG antibody-coated plate 2 h at 4°C; NanoLuc read-out divided by anti-FLAG-HRP read-out = relative interaction strength
Conditions: partners not purified

fold difference in relative interaction strength, HSP90α against HSP90β: ~3 fold
B1: NL-RHOBTB2/DBC2 (natural protein, UniProt Q9BYZ6 1-727, looked up)
chain: MDSDMDYERPNVETIKCVVVGDNAVGKTRLICARACNATLTQYQLLATHVPTVWAIDQYRVCQEVLERSRDVVDDVSVSLRLWDTFGDHHKDRRFAYGRSDVVVLCFSIANPNSLHHVKTMWYPEIKHFCPRAPVILVGCQLDLRYADLEAVNRARRPLARPIKPNEILPPEKGREVAKELGIPYYETSVVAQFGIKDVFDNAIRAALISRRHLQFWKSHLRNVQRPLLQAPFLPPKPPPPIIVVPDPPSSSEECPAHLLEDPLCADVILVLQERVRIFAHKIYLSTSSSKFYDLFLMDLSEGELGGPSEPGGTHPEDHQGHSDQHHHHHHHHHGRDFLLRAASFDVCESVDEAGGSGPAGLRASTSDGILRGNGTGYLPGRGRVLSSWSRAFVSIQEEMAEDPLTYKSRLMVVVKMDSSIQPGPFRAVLKYLYTGELDENERDLMHIAHIAELLEVFDLRMMVANILNNEAFMNQEITKAFHVRRTNRVKECLAKGTFSDVTFILDDGTISAHKPLLISSCDWMAAMFGGPFVESSTREVVFPYTSKSCMRAVLEYLYTGMFTSSPDLDDMKLIILANRLCLPHLVALTEQYTVTGLMEATQMMVDIDGDVLVFLELAQFHCAYQLADWCLHHICTNYNNVCRKFPRDMKAMSPENQEYFEKHRWPPVWYLKEEDHYQRARKEREKEDYLHLKRQPKRRWLFWNSPSSPSSSAASSSSPSSSSAVV
notes: E3-ubiquitin ligase RHOBTB2/DBC2; also called RHOBTB2 fused to NanoLuc luciferase; source: HEK293, transfected, in lysate; not shown: NanoLuc luciferase, N-terminal, kept
